Experimental data reported in patent EP4306640A1.

Target: human CXCR4 (C-X-C chemokine receptor type 4), endogenous on human leukemia cell lines (human) (UniProt P61073)
Assay: cell-based or functional assay

Sequence of UniProt P61073 (P61073 whole entry): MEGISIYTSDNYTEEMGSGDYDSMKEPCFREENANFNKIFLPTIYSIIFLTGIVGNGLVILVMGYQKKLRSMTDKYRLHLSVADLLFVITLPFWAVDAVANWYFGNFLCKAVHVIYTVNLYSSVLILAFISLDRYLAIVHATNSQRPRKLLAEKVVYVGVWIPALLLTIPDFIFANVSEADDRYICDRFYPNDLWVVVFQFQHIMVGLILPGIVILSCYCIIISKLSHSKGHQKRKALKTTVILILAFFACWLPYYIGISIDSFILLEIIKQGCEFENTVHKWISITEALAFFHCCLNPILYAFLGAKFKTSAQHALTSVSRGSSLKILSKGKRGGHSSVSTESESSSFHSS

Work on human CXCL12α (ligand) yielded a stimulation of migration of BV-173 cells (chemotaxis assay), half-maximal stimulation of 3 nM, a stimulation of migration of Jurkat cells (chemotaxis assay), half-maximal stimulation of 0.3 nM and a stimulation of migration of Nalm-6 cells (chemotaxis assay), half-maximal stimulation of 0.3 nM. It also gave a stimulation of migration of U937 cells (chemotaxis assay), half-maximal stimulation of 3 nM.
